{
  "source": "patent US20180044406A1",
  "about": "(UNIVERSITY OF ROCHESTER, published 2018)",
  "binders": {"B1": {"name": "monoclonal antibody 4A12 (mouse IgG1) (antibody, V domains shown)", "VH": "QVQLQQPGAELVGPGTSVKLSCKSSGYTFTKYWMHWLKQRPGQGLEWIGVIDPSDSYTNYNQKFKGKATLTVDTSSSTAYLQLSSLTSEDSAVYYCANYYGSYYDVMDFWGQGTSVTVSS", "VL": "DVQITQSPSYLAASPGETITINCRASKSISKYLAWYQEKPGKTNKLLICFGSTLQSGTPSRFSGSGSGTDFTLTISSLEPEDFATYYCQQHNEYPLTFGAGTKLELKR"}},
  "target": "T1, recombinant His-glucosaminidase (His-Gmd), 6-His tagged 53 kDa glucosaminidase subunit of S. aureus autolysin (Staphylococcus aureus, UniProt A7X0T9 776-1254)",
  "T1 sequence": "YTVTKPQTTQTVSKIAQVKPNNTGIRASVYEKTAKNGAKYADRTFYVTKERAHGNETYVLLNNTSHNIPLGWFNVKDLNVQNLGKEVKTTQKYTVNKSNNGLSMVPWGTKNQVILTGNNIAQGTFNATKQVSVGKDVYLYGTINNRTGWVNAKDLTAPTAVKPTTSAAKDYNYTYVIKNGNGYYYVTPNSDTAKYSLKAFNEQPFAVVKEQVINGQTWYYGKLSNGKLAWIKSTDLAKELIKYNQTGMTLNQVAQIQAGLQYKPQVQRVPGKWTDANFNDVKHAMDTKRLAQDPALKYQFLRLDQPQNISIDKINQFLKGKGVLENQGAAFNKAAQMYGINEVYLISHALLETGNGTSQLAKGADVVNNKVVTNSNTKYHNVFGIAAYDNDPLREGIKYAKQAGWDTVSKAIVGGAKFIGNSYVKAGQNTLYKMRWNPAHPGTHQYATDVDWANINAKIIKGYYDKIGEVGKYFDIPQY",
  "assay": "cell-based or functional assay",
  "data": [
    {"binder": "B1", "values": [
      {"measurement": "fold difference, mouse 4A12 against h4A12, in the minimum concentration able to achieve ~100% inhibition of Gmd activity", "value": "~3", "unit": "fold"}
    ]}
  ]
}
